In patent publication US20130136748A1 (Ablynx, published 2013):
Numbering of substitutions follows the chain as printed. In names and notes the source's numbering stands. Where two headings read alike, the source gives them in different places.

T1: cHER3ECD (Maccaca fascicularis HER3 extracellular domain) (Macaca fascicularis, UniProt P21860 20-643 (human entry))
T1 construct: also called cyno HER3ECD; cyno HER3-ECD
T1 chain: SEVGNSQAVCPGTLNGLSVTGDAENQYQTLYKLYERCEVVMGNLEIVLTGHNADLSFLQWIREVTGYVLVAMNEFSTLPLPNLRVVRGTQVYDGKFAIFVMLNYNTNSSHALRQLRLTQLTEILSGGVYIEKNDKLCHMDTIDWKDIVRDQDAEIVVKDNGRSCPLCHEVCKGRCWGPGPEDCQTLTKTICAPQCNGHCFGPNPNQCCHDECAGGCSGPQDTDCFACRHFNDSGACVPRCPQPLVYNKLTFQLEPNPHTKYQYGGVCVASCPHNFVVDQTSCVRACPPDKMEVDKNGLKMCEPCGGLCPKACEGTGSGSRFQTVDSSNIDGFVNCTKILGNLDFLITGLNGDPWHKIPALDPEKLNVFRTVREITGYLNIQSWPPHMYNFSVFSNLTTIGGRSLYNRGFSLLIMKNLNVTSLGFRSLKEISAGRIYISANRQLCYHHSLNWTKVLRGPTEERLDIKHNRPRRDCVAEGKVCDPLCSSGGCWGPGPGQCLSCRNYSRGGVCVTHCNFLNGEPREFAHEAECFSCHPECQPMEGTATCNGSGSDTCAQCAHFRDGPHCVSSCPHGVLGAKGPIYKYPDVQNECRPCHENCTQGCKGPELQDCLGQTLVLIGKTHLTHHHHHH

T2: Chimeric chicken Her3-human domain 1 (AA1-206 human, AA207-642 chicken) (chicken/human chimera)
T2 construct: Transmembrane and extracellular regions, on HEK293 cells
T2 chain: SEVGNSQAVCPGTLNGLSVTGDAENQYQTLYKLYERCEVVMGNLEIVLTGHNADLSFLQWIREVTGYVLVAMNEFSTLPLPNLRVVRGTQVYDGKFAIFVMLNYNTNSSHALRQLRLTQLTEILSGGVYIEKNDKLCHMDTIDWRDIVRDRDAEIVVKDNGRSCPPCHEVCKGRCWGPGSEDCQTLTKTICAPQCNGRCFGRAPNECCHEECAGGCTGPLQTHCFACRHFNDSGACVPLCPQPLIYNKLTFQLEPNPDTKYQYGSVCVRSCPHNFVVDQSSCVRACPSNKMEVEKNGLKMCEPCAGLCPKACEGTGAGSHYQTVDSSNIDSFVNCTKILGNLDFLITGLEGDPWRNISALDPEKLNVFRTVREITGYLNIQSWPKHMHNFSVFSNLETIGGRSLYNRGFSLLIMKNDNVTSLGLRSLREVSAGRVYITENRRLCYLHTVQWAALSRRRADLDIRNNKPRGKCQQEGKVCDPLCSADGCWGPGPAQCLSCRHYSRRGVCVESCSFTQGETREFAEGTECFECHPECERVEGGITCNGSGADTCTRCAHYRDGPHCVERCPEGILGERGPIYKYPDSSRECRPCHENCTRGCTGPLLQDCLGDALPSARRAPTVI

B1: 18F05 (VHH)
VHH: EVQLVESGGGLVQPGGSLRLSCVASGFTFSSYWMYWVRQAPGKGVEWVSAISPGGVERYTDSVKGRFTISRDNAKNTLYLQMNSLKSEDTAMYYCARLTSFATPESQGTQVTVSS
notes: also called 18F5
B2: 18B05 (VHH)
VHH: EVQLVESGGGLVQAGGSLRLSCAASGLTFGSAPMGWYRQAPGKERELVAYISGDERIWYGDSVKGRFTISRDTTKNTLYLQMNSLKPEDTAVYYCVSDVKVRHWGQGTQVTVSS
B3: HER3MS00046 (VHH)
VHH: EVQLVESGGGLVQPGGSLRLSCAASGRTYYLNAMGWFRQGPGKDREFVAAIDWSDGNKDYADSVKGRFTISRDNSKNTVYLQMNSLRPEDTAVYYCAADTPPWGPMIYIESYDSWGQGTLVTVSS
notes: 21F06 + A14P, A74S, K83R, Q108L; also called HER3MS0046; 21F06 basic variant
B4: HER3MS00047 (VHH)
VHH: B3 VHH with G40A
notes: 21F06 basic + G40A; also called HER3MS0047
B5: HER3MS00048 (VHH)
VHH: B3 VHH with D44E
notes: 21F06 basic + D44E; also called HER3MS0048
B6: HER3MS00042 (VHH)
VHH: EVQLVESGGGLVQPGGSLRLSCAASGFTFSSYPMSWVRQAPGKGPAWVSTVSPGGITTSYADSVKGRFTISRDNSKNTLYLQMNSLRPEDTAVYYCLRDLNNRGQGTLVTVSS
notes: 04C07 + A14P, A74S, K83R, Q108L; also called HER3MS0042; 04C07 basic variant
B7: HER3MS00043 (VHH)
VHH: B6 VHH with A46E
notes: 04C07 basic + A46E; also called HER3MS0043
B8: HER3MS00044 (VHH)
VHH: B6 VHH with L97A
notes: 04C07 basic + L93A; also called HER3MS0044
B9: 17E08 (VHH)
VHH: EVQLVESGGGLVQPGGSLRLSCSASGSIFGLNAMGWYRQTPGKERELVAGITSITRVGSTRYADSAKGRFTISGDYAKNTVYLQMNSLKPEDTGVYYCRMSIVKSGGADYWGQGTQVTVSS

Experiments:
human HER2 [1] = molecular target: T3, human HER2 (human, UniProt P04626 23-1255); test: FACS CHO-HER2, 2000 nM
T3 construct: also called hHER2

human HER1 [2] = molecular target: T4, human HER1 (human, UniProt P00533 25-1210); test: FACS CHO-HER1, 2000 nM
T4 construct: also called EGFR; ErbB1

human HER2 [3] = molecular target: T3, human HER2; test: FACS, CHO-HER2
human HER1 [4] = molecular target: T4, human HER1; test: FACS CHO-HER1, 222 nM
hHER3 full length [5] = molecular target: T5, hHER3 full length (human, UniProt P21860 20-1342); test: FACS, 400 nM, competitor 17C08-biotin
T5 construct: On transfected CHO, CHO HER2/HER3, CHO EGFR/HER3 or CHO Flp-In cells; endogenous HER3 of MCF-7 and MDA-MB468 cells in the signalling assays; also called human HER3

hHER3 full length [6] = molecular target: T5, hHER3 full length; test: FACS, 400 nM, competitor 18E08-biotin
human HER4 [7] = molecular target: T6, human HER4 (human, UniProt Q15303 26-1308); test: FACS, CHO-HER4
human HER4 [8] = molecular target: T6, human HER4; test: FACS CHO-HER4, 667 nM
hHER3 full length [9] = molecular target: T5, hHER3 full length; test: FACS, 400 nM, competitor 21B02-biotin
[10] = molecular target: T7, human HER3-Fc (R&D Systems, 348-RB) (human, UniProt P21860 20-643); test: SPR, HER3-Fc captured by anti-Fc
T7 construct: Bought; also called hHER3-Fc; Fc-HER3; Fc part of the bought chimera not given, not described

human HER1 [11] = molecular target: T4, human HER1; test: FACS, CHO-HER1
human HER2 [12] = molecular target: T3, human HER2; test: FACS CHO-HER2, 222 nM
hHER3 full length [13] = molecular target: T5, hHER3 full length; test: cell-based or functional assay
[14] = molecular target: T8, hHER3 ECD (human HER3 extracellular domain) (human, UniProt P21860 20-643); test: ELISA, coated hHER3-ECD
T8 construct: also called recombinant HER3-ECD

[15] = molecular target: T1, cHER3ECD (Maccaca fascicularis HER3 …); test: ELISA, coated cHER3-ECD
human HER1 [16] = molecular target: T4, human HER1; test: FACS CHO-HER1, 667 nM
hHER3 full length [17] = molecular target: T5, hHER3 full length; test: FACS, 400 nM, competitor 04C07-biotin
hHER3 full length [18] = molecular target: T5, hHER3 full length; test: FACS, 400 nM, competitor 04F10-biotin
[19] = molecular target: T2, Chimeric chicken Her3-human domain 1 …; test: FACS, HEK293 with chimeric HER3
hHER3 full length [20] = molecular target: T5, hHER3 full length; test: cell-based or functional assay; remark: listed apart in the source
hHER3 full length [21] = molecular target: T5, hHER3 full length; test: FACS competition with HRG1-β1-EGF, CHO-HER3
human HER4 [22] = molecular target: T6, human HER4; test: FACS CHO-HER4, 2000 nM
human HER4 [23] = molecular target: T6, human HER4; test: FACS CHO-HER4, 222 nM
human HER2 [24] = molecular target: T3, human HER2; test: FACS CHO-HER2, 667 nM
hHER3 full length [25] = molecular target: T5, hHER3 full length; test: FACS, 400 nM, competitor 23F05-biotin
[26] = molecular target: T7, human HER3-Fc (R&D Systems, 348-RB); test: HRG competition alphascreen
hHER3 full length [27] = molecular target: T5, hHER3 full length; test: cell-based or functional assay; remark: listed apart in the source
[28] = molecular target: T7, human HER3-Fc (R&D Systems, 348-RB); test: HRG competition alphascreen; remark: listed apart in the source
[29] = molecular target: T7, human HER3-Fc (R&D Systems, 348-RB); test: HRG competition alphascreen; remark: listed apart in the source

T6 sequence (Q15303 26-1308 limits assumed): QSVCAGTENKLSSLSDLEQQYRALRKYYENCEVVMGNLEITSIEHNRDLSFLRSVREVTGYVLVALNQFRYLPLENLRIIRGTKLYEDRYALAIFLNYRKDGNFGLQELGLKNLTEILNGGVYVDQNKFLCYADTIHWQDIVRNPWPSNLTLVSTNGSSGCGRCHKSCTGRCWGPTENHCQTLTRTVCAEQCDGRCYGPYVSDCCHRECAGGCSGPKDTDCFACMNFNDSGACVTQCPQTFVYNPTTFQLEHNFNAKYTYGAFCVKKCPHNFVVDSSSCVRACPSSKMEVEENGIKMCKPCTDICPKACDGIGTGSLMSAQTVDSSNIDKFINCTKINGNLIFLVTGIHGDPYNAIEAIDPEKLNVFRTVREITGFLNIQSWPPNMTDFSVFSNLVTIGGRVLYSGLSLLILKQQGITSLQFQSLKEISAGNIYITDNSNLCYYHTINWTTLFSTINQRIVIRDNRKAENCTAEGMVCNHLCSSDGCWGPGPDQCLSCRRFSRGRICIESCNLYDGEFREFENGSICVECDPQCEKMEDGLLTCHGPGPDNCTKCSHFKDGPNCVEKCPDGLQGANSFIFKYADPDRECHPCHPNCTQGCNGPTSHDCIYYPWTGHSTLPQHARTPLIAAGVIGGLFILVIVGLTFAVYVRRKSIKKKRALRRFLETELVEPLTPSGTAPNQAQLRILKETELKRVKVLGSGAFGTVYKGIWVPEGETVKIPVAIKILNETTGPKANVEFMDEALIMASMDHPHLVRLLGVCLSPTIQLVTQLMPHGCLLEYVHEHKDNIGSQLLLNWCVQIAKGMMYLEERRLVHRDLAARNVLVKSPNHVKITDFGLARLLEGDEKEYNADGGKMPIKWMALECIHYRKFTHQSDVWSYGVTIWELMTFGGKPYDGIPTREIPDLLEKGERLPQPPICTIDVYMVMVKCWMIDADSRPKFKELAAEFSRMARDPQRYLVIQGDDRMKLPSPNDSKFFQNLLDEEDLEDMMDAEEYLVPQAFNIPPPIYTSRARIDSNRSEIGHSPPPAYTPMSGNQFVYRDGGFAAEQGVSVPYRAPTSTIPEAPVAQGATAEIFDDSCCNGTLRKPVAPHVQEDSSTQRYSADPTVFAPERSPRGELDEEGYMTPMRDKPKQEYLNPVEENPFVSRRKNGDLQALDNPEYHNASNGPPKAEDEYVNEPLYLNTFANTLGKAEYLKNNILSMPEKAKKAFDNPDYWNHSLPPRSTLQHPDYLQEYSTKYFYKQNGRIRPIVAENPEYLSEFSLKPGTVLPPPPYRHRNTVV

Row | Binder | MCF (human HER2 [1]) | MCF (human HER1 [2]) | binding result (human HER2 [3]) | MCF (human HER1 [4]) | % competition (hHER3 full length [5]) | % competition (hHER3 full length [6]) | binding result (human HER4 [7]) | MCF (human HER4 [8]) | % competition (hHER3 full length [9]) | Kd [10] | kon [10] | binding result (human HER1 [11]) | MCF (human HER2 [12]) | IC50, HRG1-β1 induced pHER3, MCF-7 (hHER3 full length [13]) | IC50, HRG1-β1 induced pHER3, MDA-MB468 (hHER3 full length [13]) | EC50 [14] | EC50 [15] | MCF (human HER1 [16]) | % competition (hHER3 full length [17]) | % competition (hHER3 full length [18]) | also measured
1 | B1 | 256 | 133 | no binding (tested: 2000 nM) | 154 | 0% | 0% | no binding (tested: 2000 nM) | 149 | 0% | 0.24 nM | 427000 M⁻¹ s⁻¹ | no binding (tested: 2000 nM) | 436 | 1.53e-09 M | 1.8e-08 M | 0.29 nM | 0.29 nM | 60 | 100% | 15% | binding result [19]: binds; IC50, HRG1-β1 induced pAkt, MCF-7 (hHER3 full length [20]): 8.04e-09 M; IC50, HRG1-β1 induced pERK1/2, MCF-7 (hHER3 full length [20]): 8.98e-08 M; IC50 (hHER3 full length [21]): 20.1 nM; MCF (human HER4 [22]): 120; MCF (human HER4 [23]): 149; MCF (human HER2 [24]): 347; % competition (hHER3 full length [25]): 0%
2 | B2 | 77 | 61 | no binding (tested: 2000 nM) | 82 | 0% | 0% | no binding (tested: 2000 nM) | 95 | 0% | 0.29 nM | 490000 M⁻¹ s⁻¹ | no binding (tested: 2000 nM) | 61 | 5.18e-09 M | 3e-08 M | 0.4 nM | 0.45 nM | 101 | 98% | 31% | binding result [19]: binds; IC50, HRG1-β1 induced pAkt, MCF-7 (hHER3 full length [20]): 6.02e-09 M; inhibition of HRG1-β1 induced pERK1/2, MCF-7 (hHER3 full length [20]): < 50 % inhibition; IC50 (hHER3 full length [21]): 16.1 nM; MCF (human HER4 [22]): 96; MCF (human HER4 [23]): 60; MCF (human HER2 [24]): 63; % competition (hHER3 full length [25]): 0%
3 | B3 |  |  |  |  |  |  |  |  |  |  |  |  |  |  |  |  |  |  |  |  | IC50 [26]: 0.28 nM
4 | B4 |  |  |  |  |  |  |  |  |  |  |  |  |  |  |  |  |  |  |  |  | IC50 [26]: 0.21 nM
5 | B5 |  |  |  |  |  |  |  |  |  |  |  |  |  |  |  |  |  |  |  |  | IC50 [26]: 0.27 nM
6 | B6 |  |  |  |  |  |  |  |  |  |  |  |  |  |  |  |  |  |  |  |  | IC50 pHER3, HRG1-β1 stimulated MCF7 (hHER3 full length [27]): 6.81e-09 M; IC50 [28]: 0.31 nM; IC50 [29]: 0.31 nM
7 | B7 |  |  |  |  |  |  |  |  |  |  |  |  |  |  |  |  |  |  |  |  | IC50 [28]: 1.02 nM
8 | B8 |  |  |  |  |  |  |  |  |  |  |  |  |  |  |  |  |  |  |  |  | IC50 [28]: 1 nM
9 | B9 | 73 | 59 | no binding (tested: 2000 nM) | 66 | 0% | 0% | no binding (tested: 2000 nM) | 117 | 5% | 0.11 nM | 363000 M⁻¹ s⁻¹ | no binding (tested: 2000 nM) | 51 | 4.51e-09 M | 2.46e-08 M | 1.02 nM | 1.15 nM | 52 | 100% | 32% | binding result [19]: binds; IC50, HRG1-β1 induced pAkt, MCF-7 (hHER3 full length [20]): 5.78e-09 M; IC50, HRG1-β1 induced pERK1/2, MCF-7 (hHER3 full length [20]): 2.78e-09 M; IC50 (hHER3 full length [21]): 75.9 nM; MCF (human HER4 [22]): 242; MCF (human HER4 [23]): 110; MCF (human HER2 [24]): 51; % competition (hHER3 full length [25]): 0%
